Data set [1] deals with T1, Complement iC3b (Homo sapiens, UniProt P01024;P01024;P01024 P01024:23-667,P01024:749-1303,P01024:1321-1663). Description: filter; no binding by filter assay and EMSA. The following applies: tags: Calbiochem; label: 32P-CTP uniform. As to the method:
(§1) Initially, RNA was heated to 65° C. for 10 minutes then switched to 37° C. for an additional 10 minutes before the addition of protein. The reactions were allowed to equilibrate for 15-20 minutes at ambient temperature before being subjected to Electrophoretic Mobility Shift Assay (“EMSA”) or filter binding.
(§2) For filter binding, the above-mentioned reaction mixture was immobilized on nitrocellulose (Millipore) using a manifold (Millipore) or a Bio-Dot SF (slot format) Microfiltration System (Bio-Rad, Hercules, Calif.). The nitrocellulose membrane was first soaked in binding buffer containing 20 mM Tris-Cl (pH 7.6), 150 mM NaCl, 10 mM MgCl₂. Nitrocellulose and two pieces of 3M Whatmann filter paper (3M) were assembled in the manifold as per company recommendations. Each well was washed with 1 ml of binding buffer. Samples were loaded in the wells and vacuum was applied to bind the complex, then each well was washed with 2 ml of binding buffer. The nitrocellulose membrane was then air dried and exposed to a phosphor screen (GE Healthcare) for 1 hour. The image was scanned using a Typhoon imager and ImageQuant software and the data was analyzed.

Data set [2] addresses T2, Complement C3b (Homo sapiens, UniProt P01024;P01024 P01024:23-667,P01024:749-1663). Description: filter; 20 mM Tris-HCl pH 7.6, 150 mM NaCl, 10 mM MgCl2. The following applies: tags: Quidel; label: 32P-CTP uniform. As to the method:
as §1, §2

In data set [3] the target is T3, Complement C3 (Homo sapiens, UniProt P01024;P01024 P01024:23-667,P01024:672-1663). Put plainly: filter; 20 mM Tris-HCl pH 7.6, 150 mM NaCl, 10 mM MgCl2; does not compete with AptC3-1. The note with it: tags: Calbiochem; label: 32P-CTP uniform. As to the method:
as §1, §2

Data set [4] addresses T2, Complement C3b. Put plainly: EMSA; retarded band. The following applies: tags: Quidel; label: 32P-CTP uniform; hairpin with apical loop and internal loop.
Data set [5] deals with T1, Complement iC3b. Description: EMSA; retarded band. The following applies: tags: Calbiochem; label: 32P-CTP uniform; hairpin with apical loop and internal loop.
Data set [6] deals with T3, Complement C3. Put plainly: EMSA; retarded band; 2.5 mM MgCl2 gel, 4 C. The note with it: tags: Calbiochem; label: 32P-CTP uniform; hairpin with apical loop and internal loop.
Data set [7] deals with T2, Complement C3b. Description: filter; 20 mM Tris-HCl pH 7.6, 150 mM NaCl, 10 mM MgCl2; minimized version may have been used. The note with it: tags: Quidel; label: 32P-CTP uniform. The procedure:
as §1, §2

The target in data set [8] is T1, Complement iC3b. The description is as above. The following applies: tags: Calbiochem; label: 32P-CTP uniform. As to the method: as §1, §2
Data set [9] concerns the target T3, Complement C3. Described as above. The note with it: tags: Calbiochem; label: 32P-CTP uniform. As to the method:
as §1, §2

T3 sequence (P01024 23-667, chain 1 of 2): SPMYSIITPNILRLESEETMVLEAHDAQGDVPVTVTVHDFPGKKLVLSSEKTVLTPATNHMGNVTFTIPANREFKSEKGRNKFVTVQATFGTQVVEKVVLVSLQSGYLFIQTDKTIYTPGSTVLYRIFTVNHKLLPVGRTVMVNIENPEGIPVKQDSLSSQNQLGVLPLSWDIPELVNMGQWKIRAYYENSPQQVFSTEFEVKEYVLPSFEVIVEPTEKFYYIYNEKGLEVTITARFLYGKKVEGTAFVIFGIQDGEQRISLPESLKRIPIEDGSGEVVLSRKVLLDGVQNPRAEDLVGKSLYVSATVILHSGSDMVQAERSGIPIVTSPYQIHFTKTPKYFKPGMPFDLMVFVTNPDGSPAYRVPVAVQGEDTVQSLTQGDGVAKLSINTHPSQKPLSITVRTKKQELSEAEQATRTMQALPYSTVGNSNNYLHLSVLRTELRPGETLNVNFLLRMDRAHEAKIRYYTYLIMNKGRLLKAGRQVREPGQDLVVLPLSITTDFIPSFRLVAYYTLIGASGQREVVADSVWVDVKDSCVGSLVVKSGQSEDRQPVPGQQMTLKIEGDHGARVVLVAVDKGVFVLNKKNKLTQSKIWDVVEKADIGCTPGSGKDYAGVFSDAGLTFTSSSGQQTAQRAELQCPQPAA
T3 sequence (P01024 672-1663, chain 2 of 2): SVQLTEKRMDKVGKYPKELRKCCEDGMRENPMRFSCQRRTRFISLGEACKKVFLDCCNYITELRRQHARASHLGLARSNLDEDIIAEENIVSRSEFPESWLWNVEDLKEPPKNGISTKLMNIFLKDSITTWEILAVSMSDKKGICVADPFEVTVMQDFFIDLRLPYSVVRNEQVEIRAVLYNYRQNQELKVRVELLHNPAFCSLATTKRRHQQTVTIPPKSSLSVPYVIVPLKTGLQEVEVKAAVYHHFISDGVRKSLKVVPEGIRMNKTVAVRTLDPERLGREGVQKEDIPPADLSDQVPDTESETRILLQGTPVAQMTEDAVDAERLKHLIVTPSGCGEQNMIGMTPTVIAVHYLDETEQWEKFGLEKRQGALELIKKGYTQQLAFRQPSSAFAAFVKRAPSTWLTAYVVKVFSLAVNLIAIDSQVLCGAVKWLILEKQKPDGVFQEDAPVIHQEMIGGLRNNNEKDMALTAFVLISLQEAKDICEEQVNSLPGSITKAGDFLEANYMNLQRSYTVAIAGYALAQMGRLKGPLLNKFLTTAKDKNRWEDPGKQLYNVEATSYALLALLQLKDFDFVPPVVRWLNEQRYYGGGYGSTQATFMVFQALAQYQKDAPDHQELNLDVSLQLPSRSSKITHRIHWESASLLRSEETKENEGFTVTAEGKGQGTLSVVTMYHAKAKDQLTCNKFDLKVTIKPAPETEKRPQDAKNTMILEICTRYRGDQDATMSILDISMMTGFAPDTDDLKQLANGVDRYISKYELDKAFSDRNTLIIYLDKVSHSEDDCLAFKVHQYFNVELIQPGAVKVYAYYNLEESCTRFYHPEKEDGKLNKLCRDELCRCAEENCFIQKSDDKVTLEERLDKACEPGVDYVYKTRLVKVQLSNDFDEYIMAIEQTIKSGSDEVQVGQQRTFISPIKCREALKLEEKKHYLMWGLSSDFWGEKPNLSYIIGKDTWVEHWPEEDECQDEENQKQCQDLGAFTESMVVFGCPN
T2 sequence (P01024 23-667, chain 1 of 2): as the sequence (P01024 23-667, chain 1 of 2) above
T2 sequence (P01024 749-1663, chain 2 of 2): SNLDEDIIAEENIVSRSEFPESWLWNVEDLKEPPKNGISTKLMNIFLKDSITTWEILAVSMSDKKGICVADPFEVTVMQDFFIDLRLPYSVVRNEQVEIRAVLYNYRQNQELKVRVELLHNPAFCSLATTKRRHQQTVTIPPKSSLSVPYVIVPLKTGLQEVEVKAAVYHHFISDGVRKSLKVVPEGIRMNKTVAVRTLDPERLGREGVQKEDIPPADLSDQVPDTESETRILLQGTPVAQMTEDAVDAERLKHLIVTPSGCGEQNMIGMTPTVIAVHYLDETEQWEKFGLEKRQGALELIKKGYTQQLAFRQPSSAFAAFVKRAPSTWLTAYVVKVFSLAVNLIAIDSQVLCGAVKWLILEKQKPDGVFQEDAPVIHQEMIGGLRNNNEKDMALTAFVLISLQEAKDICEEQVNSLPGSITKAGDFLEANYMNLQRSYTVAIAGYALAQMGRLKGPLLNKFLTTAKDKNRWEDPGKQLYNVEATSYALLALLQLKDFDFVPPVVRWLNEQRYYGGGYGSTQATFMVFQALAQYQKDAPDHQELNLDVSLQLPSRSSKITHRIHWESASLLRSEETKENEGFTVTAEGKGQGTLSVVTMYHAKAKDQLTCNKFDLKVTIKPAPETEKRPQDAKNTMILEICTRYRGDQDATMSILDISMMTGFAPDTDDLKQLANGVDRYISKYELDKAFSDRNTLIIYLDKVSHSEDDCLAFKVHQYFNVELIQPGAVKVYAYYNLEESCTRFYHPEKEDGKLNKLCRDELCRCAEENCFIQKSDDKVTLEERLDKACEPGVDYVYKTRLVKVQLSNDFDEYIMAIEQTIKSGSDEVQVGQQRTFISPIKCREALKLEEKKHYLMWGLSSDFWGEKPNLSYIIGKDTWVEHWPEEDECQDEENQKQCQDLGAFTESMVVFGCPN
T1 sequence (P01024 23-667, chain 1 of 3): as the sequence (P01024 23-667, chain 1 of 2) above
T1 sequence (P01024 749-1303, chain 2 of 3): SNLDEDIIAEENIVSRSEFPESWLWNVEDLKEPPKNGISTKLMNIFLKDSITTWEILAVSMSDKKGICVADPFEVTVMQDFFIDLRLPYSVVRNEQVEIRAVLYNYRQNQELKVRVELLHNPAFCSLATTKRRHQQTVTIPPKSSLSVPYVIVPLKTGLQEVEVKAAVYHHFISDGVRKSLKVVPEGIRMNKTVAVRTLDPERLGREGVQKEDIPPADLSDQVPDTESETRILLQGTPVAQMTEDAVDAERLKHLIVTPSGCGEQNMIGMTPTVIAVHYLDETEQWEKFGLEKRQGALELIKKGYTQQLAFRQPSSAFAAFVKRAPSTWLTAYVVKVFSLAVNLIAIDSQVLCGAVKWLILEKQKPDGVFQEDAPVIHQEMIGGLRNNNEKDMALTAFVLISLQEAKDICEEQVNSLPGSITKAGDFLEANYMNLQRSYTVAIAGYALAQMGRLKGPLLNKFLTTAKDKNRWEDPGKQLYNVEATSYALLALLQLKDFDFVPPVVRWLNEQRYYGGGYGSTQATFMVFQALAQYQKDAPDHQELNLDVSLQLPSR
T1 sequence (P01024 1321-1663, chain 3 of 3): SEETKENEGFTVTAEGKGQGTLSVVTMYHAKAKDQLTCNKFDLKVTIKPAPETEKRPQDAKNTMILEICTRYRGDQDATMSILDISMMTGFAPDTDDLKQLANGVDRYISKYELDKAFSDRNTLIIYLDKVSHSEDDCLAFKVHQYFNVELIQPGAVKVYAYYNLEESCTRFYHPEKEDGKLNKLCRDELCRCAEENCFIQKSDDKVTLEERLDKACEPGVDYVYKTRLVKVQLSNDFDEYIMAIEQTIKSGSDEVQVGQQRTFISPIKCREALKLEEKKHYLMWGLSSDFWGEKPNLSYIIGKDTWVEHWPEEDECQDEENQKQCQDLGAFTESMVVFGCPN

B1: AptC3-2 (ssRNA)
RNA: GGGAGAAUUCAACUGCCAUCUAGGCAAAUCCGCGAGCGCCGGUACCGGUGGCGCAUGCCCACACAGCACUAAACGAGUACUACAAGCUUCUGGACUCGGU
As to B1, the binding result with Complement iC3b [1] is “no binding”. The Kd with Complement C3b [2] and with Complement C3 [3] was 30 nM throughout.

B2: MiniAptC3-1 (ssRNA)
RNA: GGGCUAGAAGAAUAUGACGGAUUGACCGUAUCAGGGUAGCCG
Turning to B2, the binding result with Complement C3b [4], with Complement iC3b [5] and with Complement C3 [6] was “binds” throughout.

B3: AptC3-1 (ssRNA)
RNA: GGGAGAAUUCAACUGCCAUCUAGGCUAGAAGAAUAUGACGGAUUGACCGUAUCAGGGUAGCCGAAGGGAGACAGAAGUACUACAAGCUUCUGGACUCGGU
In the case of B3, the dissociation constant Kd in the data set with Complement C3b [7], with Complement iC3b [8] and in the data set with Complement C3 [9] was ~20 nM in each case.

(Values after US20120141382, “APTAMER MODULATORS OF COMPLEMENT PROTEIN C3 AND BIOLOGICALLY ACTIVE PROTEOLYTIC PRODUCTS THEREOF” (Research Foundation of State University of New York at …, published 2012).)
